# Measurements reported in the Immune Epitope Database (IEDB).
# What was measured:
# [1] = target: HLA-A*23:01; assay: IEDB peptide-MHC binding, purified MHC/competitive/radioactivity; filed as Kd, often an IC50 or EC50 that approximates it; ≥ and ≤ were set here for values at or beyond the usual limits of such assays
# [2] = target: HLA-A*24:02; assay: as above
# [3] = target: HLA-A*02:06; assay: as above
# [4] = target: HLA-A*02:02; assay: as above
# [5] = target: HLA-A*02:03; assay: as above
# [6] = target: HLA-B*44:03; assay: as above
# [7] = target: HLA-B*44:02; assay: as above
# [8] = target: HLA-A*26:01; assay: as above
# [9] = target: HLA-A*01:01; assay: as above
# [10] = target: HLA-B*58:01; assay: IEDB peptide-MHC binding, purified MHC/direct/fluorescence; filed as Kd, often an IC50 or EC50 that approximates it; ≥ and ≤ were set here for values at or beyond the usual limits of such assays; conditions: source organism: Mycobacterium tuberculosis
# [11] = target: HLA-A*30:02; assay: IEDB peptide-MHC binding, purified MHC/competitive/radioactivity; filed as Kd, often an IC50 or EC50 that approximates it; ≥ and ≤ were set here for values at or beyond the usual limits of such assays
# [12] = target: HLA-A*03:01; assay: IEDB peptide-MHC binding, purified MHC/direct/fluorescence; filed as Kd, often an IC50 or EC50 that approximates it; ≥ and ≤ were set here for values at or beyond the usual limits of such assays
# [13] = target: HLA-A*11:01; assay: IEDB peptide-MHC binding, purified MHC/competitive/radioactivity; filed as Kd, often an IC50 or EC50 that approximates it; ≥ and ≤ were set here for values at or beyond the usual limits of such assays; conditions: source organism: Vaccinia virus WR
# [14] = target: HLA-A*31:01; assay: as above; conditions: source organism: Vaccinia virus WR
# [15] = target: HLA-A*68:01; assay: as above; conditions: source organism: Vaccinia virus WR
# [16] = target: HLA-A*33:01; assay: as above; conditions: source organism: Vaccinia virus WR
# [17] = target: HLA-A*29:02; assay: as above; conditions: source organism: Vaccinia virus WR
# [18] = target: HLA-A*03:01; assay: as above; conditions: source organism: Vaccinia virus WR
# [19] = target: HLA-A*11:01; assay: IEDB peptide-MHC binding, purified MHC/direct/fluorescence; filed as Kd, often an IC50 or EC50 that approximates it; ≥ and ≤ were set here for values at or beyond the usual limits of such assays; conditions: source organism: Bacillus licheniformis
# [20] = target: HLA-B*15:01; assay: as above; conditions: source organism: Bacillus licheniformis
# [21] = source organism: Dengue virus 4 Philippines/H241/1956
# [22] = source organism: Dengue virus 2 Jamaica/1409/1983
# [23] = source organism: Vaccinia virus WR
# [24] = source organism: Mammarenavirus whitewaterense
# [25] = source organism: Dengue virus 3 Martinique/1243/1999
# [26] = source organism: Dengue virus 1 Singapore/S275/1990
# [27] = source organism: Lassa virus Josiah
# [28] = source organism: SARS coronavirus Tor2
# [29] = source organism: Mammarenavirus machupoense
# [30] = source organism: Dengue virus 1 Brazil/97-11/1997
# [31] = source organism: Lymphocytic choriomeningitis virus (strain Armstrong)
# [32] = source organism: Dengue virus 3 Sri Lanka/1266/2000
# [33] = source organism: Mammarenavirus lassaense
sequence,measurement,setting,value
PWLSSKPEF,Kd,[1]; [21],116 nM
MYFHRRDLRL,Kd,[2]; [22],149 nM
same,Kd,[1]; [22],57.3 nM
NTITTFIPI,Kd,[3]; [23],7770 nM
same,Kd,[4]; [23],15500 nM
same,Kd,[5]; [23],988 nM
DINESMSQMV,Kd,[3]; [23],4150 nM
same,Kd,[4]; [23],312 nM
same,Kd,[5]; [23],488 nM
IAVSVYGAI,Kd,[3]; [23],1100 nM
same,Kd,[4]; [23],1480 nM
same,Kd,[5]; [23],124 nM
RYPLTFGWCF,Kd,[2]; source organism: HIV-1 M:B_ARV2/SF2,17 nM
QEHETSWHYD,Kd,[6]; [22],746 nM
same,Kd,[7]; [22],158 nM
AAVIIMAINV,Kd,[3]; [23],446 nM
same,Kd,[4]; [23],1290 nM
same,Kd,[5]; [23],607 nM
YCHGILLKDV,Kd,[3]; [24],14900 nM
same,Kd,[4]; [24],≥ 70000 nM
same,Kd,[5]; [24],13000 nM
FLDWIKDIMT,Kd,[3]; [23],140 nM
same,Kd,[4]; [23],424 nM
same,Kd,[5]; [23],146 nM
SEMGANFRAG,Kd,[6]; [21],868 nM
same,Kd,[7]; [21],95 nM
ELPETMETLL,Kd,[8]; [25],2370 nM
AAAKTPVIVV,Kd,[3]; [23],13400 nM
same,Kd,[4]; [23],8040 nM
same,Kd,[5]; [23],1520 nM
PLPSLEYGA,Kd,[3]; [23],≥ 42500 nM
same,Kd,[4]; [23],11400 nM
same,Kd,[5]; [23],18900 nM
LTDFQSHQL,Kd,[9]; [26],6440 nM
LSNAGSNNW,Kd,[10],48.6 nM
LNQAVNNLV,Kd,[3]; [27],13600 nM
same,Kd,[4]; [27],510 nM
same,Kd,[5]; [27],3350 nM
KKGKVVGLY,Kd,[11]; source organism: Dengue virus 2 Peru/IQT2913/1996,85.3 nM
AMWLLLLSI,Kd,[3]; [28],268 nM
same,Kd,[4]; [28],357 nM
same,Kd,[5]; [28],205 nM
LLDCIMYQS,Kd,[3]; [29],3280 nM
same,Kd,[4]; [29],1530 nM
same,Kd,[5]; [29],2270 nM
VLVGVVTLY,Kd,[8]; [22],13600 nM
same,Kd,[11]; [22],58.3 nM
FFAFGHMIK,Kd,[12]; source organism: Cryptosporidium parvum,≥ 20000 nM
ITLILSNKL,Kd,[3]; [23],396 nM
same,Kd,[4]; [23],5110 nM
same,Kd,[5]; [23],17100 nM
IKYTDRKWCF,Kd,[2]; [25],2370 nM
TQFNFNGHT,Kd,[3]; [23],≥ 10000 nM
same,Kd,[4]; [23],≥ 43300 nM
same,Kd,[5]; [23],14400 nM
PFDTRQMLFY,Kd,[9]; source organism: Homo sapiens,252 nM
TVDVRNIVT,Kd,[3]; [23],≥ 54000 nM
same,Kd,[4]; [23],13400 nM
same,Kd,[5]; [23],13100 nM
ETLMLLALIA,Kd,[8]; [30],≥ 33600 nM
FMLNVSYLC,Kd,[3]; [31],932 nM
same,Kd,[4]; [31],196 nM
same,Kd,[5]; [31],1250 nM
MEAQLVRQM,Kd,[6]; [32],123 nM
same,Kd,[7]; [32],14.7 nM
LLWDYMCIS,Kd,[3]; [33],408 nM
same,Kd,[4]; [33],146 nM
same,Kd,[5]; [33],596 nM
TWAKNIHTAI,Kd,[2]; [21],2000 nM
HFFMKHPNK,Kd,[12]; source organism: Coxiella burnetii,218 nM
KLMGHFSWWT,Kd,[3]; [28],99.1 nM
same,Kd,[4]; [28],64.4 nM
same,Kd,[5]; [28],213 nM
MELKYSWKT,Kd,[6]; [25],343 nM
FTLLFQLCT,Kd,[3]; [28],140 nM
same,Kd,[4]; [28],1100 nM
same,Kd,[5]; [28],744 nM
NTGMGMYYPT,Kd,[3]; [23],11400 nM
same,Kd,[4]; [23],≥ 23400 nM
same,Kd,[5]; [23],≥ 21000 nM
EISSMLNIM,Kd,[8]; [30],657 nM
SELETPNLAE,Kd,[6]; [26],6330 nM
IVYGRSNAIL,Kd,[3]; [23],424 nM
same,Kd,[4]; [23],91.6 nM
same,Kd,[5]; [23],33.4 nM
IVNNQESNKY,Kd,[13],1650 nM
same,Kd,[14],≥ 52900 nM
same,Kd,[15],7540 nM
same,Kd,[16],≥ 70000 nM
same,Kd,[17],≥ 32600 nM
same,Kd,[18],487 nM
CALVSDCAST,Kd,[3]; [23],2600 nM
same,Kd,[4]; [23],6410 nM
same,Kd,[5]; [23],146 nM
EILSNTTKTL,Kd,[3]; [23],≥ 69800 nM
same,Kd,[4]; [23],345 nM
same,Kd,[5]; [23],101 nM
GVGAPTTTY,Kd,[19],10100 nM
same,Kd,[20],120 nM
same,Kd,[12]; source organism: Bacillus licheniformis,7450 nM
